# Assay results: patent US7329737 (DYAX, dated 2008)
# Molecular target: T1, hK1 (human tissue kallikrein 1), recombinant (human, UniProt P06870 25-262)
# T1 construct: Expressed in P. pastoris from KLK1 cDNA and purified; enzymatically active; also called KLK1; Recombinant (Pichia) Kallikrein
# Test: SPR
Kd [nM],koff [s⁻¹],kon [M⁻¹ s⁻¹],Binder
18.2,0.00947,520000,"M0116-C09 (Fab, V domains shown) VH: EVQLLESGGGLVQPGGSLRLSCAASGFTFSNYKMHWVRQAPGKGLEWVSSIYPSGGWTVYADSVKGRFTISRDNSKNTLYLQMNSLRAEDTAVYYCATGYSSTWGAFDIWGQGTMVTVSS VL: AQSALTQPPSVSVSPGQTASITCFGDKLGDKYGSWYQQKPGQSPVLVLYQYWKRPSGIPERFSGSNSGNTATLTINVTQTMDEADYYCQAWDSNTVVFGGGTKLTVLG"
18.3,0.0143,780000,"M0128-F11 (Fab, V domains shown) VH: EVQLLESGGGLVQPGGSLRLSCAASGFTFSFYVMGWVRQAPGKGLEWVSWIGPSGGRTWYADSVKGRFTISRDNSKNTLYLQMNSLRAEDTAVYYCARDRGWYGIDVWGQGTTVTVSS VL: DIQMTQSPSSLSASVGDRVTITCRASQYISTYLAWYQQKPGKAPKLLIYKASDLESGVPSRFSGSGSGTEFTLTINSLQPDDFATYYCQQYNTYWTFGHGTKVEIKR"
18.4,0.00193,105000,"M0131-D12 (Fab, V domains shown) VH: EVQLLESGGGLVQPGGSLRLSCAASGFTFSWYNMYWVRQAPGKGLEWVSYIVPSGGATHYADSVKGRFTISRDNSKNTLYLQMNSLRAEDTAVYYCARALRGYSYGPRGYYYYGMDVWGQGTTVTVSS VL: AQSALTQPPSVSVAPGQTASISCSGNILDNSYASWFQQKPGQSPVMVIHRDNKRPSGIPERFSGSTSGNTATLTISGTQAVDEADYYCQAWDRTTGVFGTGTRLTVLR"
18.4,0.00612,332000,"M0128-A06 (Fab, V domains shown) VH: EVQLLESGGGLVQPGGSLRLSCAASGFTFSHYKMNWVRQAPGKGLEWVSYIGSSGGKTGYADSVKGRFTISRDNSKNTLYLQMNSLRAEDTALYYCARVGVWYGMDVWGQGTLVTVSS VL: AQSALTQPPSLSVSAGQTATITCSPSGGGLRNKYVSWYQQRPGQSPFLVIYKDAERPSGIPERFSGSNFGNTATLTIGGTQAMDEADFYCLAWDSTTRVFGGGTKLTVLS"
18.6,0.0934,5.01e+06,"M0095-G09 (Fab, V domains shown) VH: EVQLLESGGGLVQPGGSLRLSCAASGFTFSNYNMHWVRQAPGKGLEWVSVIYPSGGYTVYADSVKGRFTISRDNSKNTLYLQMNSLRAEDTAVYYCARRGNWGGIDYWGQGTLVTVSS VL: DIQMTQSPSSLSASVGDRVTITCRASQSISNWLAWYQQKPGKAPKLLIYKASTLQTGVPSRFSGSGSGTEFSLTISSLQPDDFATYYCQQTYSAPFNFGPGTKVDIKR"
18.8,0.00513,272000,"M0137-G10 (Fab, V domains shown) VH: EVQLLESGGGLVQPGGSLRLSCAASGFTFSRYVMHWVRQAPGKGLEWVSYISPSGGVTKYADSVKGRFTISRDNSKNTLYLQMNSLRAEDTAVYYCAKALYPGMGYYYGMDVWGQGTTVTVSS VL: DIQMTQSPSSLSASVGDRVTITCRTSQTVSTFLNWYQQKPGTAPKLLIYAASRLQSGVPSRFSGSGSETDFTLTISRLQPEDFATYYCQQSFTSPRTFGLGTKVEIKR"
19.9,2.44,1.23e+08,"M0106-E12 (Fab, V domains shown) VH: EVQLLESGGGLVQPGGSLRLSCAASGFTFSHYNMTWVRQAPGKGLEWVSSIWPSGGATRYADSVKGRFTISRDNSKNTLYLQMNSLRAEDTAVYYCARTSRFYGMDVWGQGTTVTVSS VL: DIQMTQSPGTLSLSPGERATLSCRPSQSVYSNYLAWYQQKPGQAPRLLIYGASTRATGIPDRFSGSASGTDFTLTISRLEPEDFAVYYCQQYGNSYTFGPGTKVDIKR"
20.3,0.0012,59100,"M0124-H10 (Fab, V domains shown) VH: EVQLLESGGGLVQPGGSLRLSCAASGFTFSNYFMNWVRQAPGKGLEWVSSIGSSGGYTRYADSVKGRFTISRDNSKNTLYLQMNSLRAEDTAVYYCARVGVWYGMDVWGQGTTVTVSS VL: DIQMTQSPATLSLSAGERATLSCRASQSVNIDVGWYQQKPGQAPRLLIYDASKRATGIPTRFSGSGSGTDFTLTIANLEPEDFAVYYCQQRARWLTFGGGTRLEIKR"
20.8,0.00427,205000,"M0122-D01 (Fab, V domains shown) VH: EVQLLESGGGLVQPGGSLRLSCAASGFTFSHYIMHWVRQAPGKGLEWVSGIYPSGGSTKYADSVKGRFTISRDNSKNTLYLQMNSLRAEDTAVYYCARALVGALDYWGQGTLVTVSS VL: DIQMTQSPSSVSASVGDRVTITCRASQDIRTWLAWYQQKSGKAPKLLIYSSSSLQSGISSRFSGSGSGTDFTLTISNLQPEDSAIYYCQQATTFPWTFGQGTKVEIKR"
22.6,0.00752,333000,"M0093-C10 (Fab, V domains shown) VH: EVQLLESGGGLVQPGGSLRLSCAASGFTFSRYTMEWVRQAPGKGLEWVSVIRPSGGTTMYADSVKGRFTISRDNSKNTLYLQMNSLRAEDMAVYYCARVGVWYGMDVWGQGTTVTVSS VL: DIQITQSPSSLSASVGDRVTITCRASQGISNYLAWYQQKPGKVPKLLIYAASTLQSGVPSRFSGSGSGTDFTLTISSLQPEDFATYYCEQLNSFPHAFGQGTKVEIKR"
22.6,0.0142,628000,"M0106-C06 (Fab, V domains shown) VH: EVQLLESGGGLVQPGGSLRLSCAASGFTFSHYTMQWVRQAPGKGLEWVSSIYPSGGATKYADSVKGRFTISRDNSKNTLYLQMNSLRAEDTAMYYCARSGYYYGLDVWGQGTTVTVSS VL: DIQMTQSPATLSASVGDRVTITCRASQSVSRWLAWYQQKPGKAPKLLIYKASTLESGVPSRFSGSGSGTEFTLTISSLQPDDFATYYCQQYGAFGQGTKVEIRR"
22.8,0.00826,362000,"M0117-B07 (Fab, V domains shown) VH: EVQLLESGGGLVQPGGSLRLSCAASGFTFSHYTMWWVRQAPGKGLEWVSRIWPSGGTTRYADSVKGRFTISRDNSKNTLYLQMNSLRAEDTAVYYCARGGSYLAFDIWGQGTMVTVSS VL: DIQMTQSPATLSLSPGERATLSCRASQSVSSYLAWYQQKPGQAPRLLIYDASNRATGIPARFSGSGSGTDFTLTISSLEPEDFAVYYCQQRSNFGGGTKVEIKR"
23,0.415,1.8e+07,"M0126-H09 (Fab, V domains shown) VH: EVQLLESGGGLVQPGGSLRLSCAASGFTFSNYTMMWVRQAPGKGLEWVSGIYPSGGQTAYADSVKGRFTISRDNSKNTLYLQMNSLRAEDTAVYYCARGGSWYAFDIWGQGTMVTVSS VL: AQSVLTQDPAVSVALGQTVRFTCQGDSLRNYHPSWYQQKPRQAPVLVMFGRNNRPSGIPDRFSGSTSGGTASLTITATQADDEADYFCSSRDGSGNFLFGGGTKLTVLG"
23,0.0105,458000,"M0093-G09 (Fab, V domains shown) VH: EVQLLESGGGLVQPGGSLRLSCAASGFTFSWYSMTWVRQAPGKGLEWVSSISPSGGATKYADSVKGRFTISRDNSKNTLYLQMNSLRAEDTAVYYCARGGAASLPFDYWGQGTLVTVSS VL: DIQMTQSPSSLSASVGDRVTITCRASQSISSFLNWYQQKPGKAPKLLLMYAASSLQSGVPSRFSGSGSGTDFTLTISSLQPEDFATYYCQQSYSTPYTFGQGTKLEIKR"
23.2,0.00936,403000,"M0114-E02 (Fab, V domains shown) VH: EVQLLESGGGLVQPGGSLRLSCAASGFTFSHYKMMWVRQAPGKGLEWVSYIYPSGGWTGYADSVKGRFTISRDNSKNTLYLQMNSLRAEDTAVYYCARVGPWDAFDIWGQGTMVTVSS VL: DIQMTQSPATLSLSPGERATLSCRASQSVGGYLAWYQQKPGQAPRLLIYDASKRATGIPARFSGSGSGTDFTLTISSLEPEDFAVYYCQQRSKWPPYTFGQGTKLEIKR"
24.8,0.0116,467000,"M0102-G11 (Fab, V domains shown) VH: EVQLLESGGGLVQPGGSLRLSCAASGFTFSRYMMEWVRQAPGKGLEWVSGISPSGGTTKYADSVKGRFTISRDNSKNTLYLQMNSLRAEDTAVYYCTRGGYNNYYYALDVWGQGTTVTVSS VL: DIQMTQSPDTLSLSPGERATLSCRASESVSSSYFAWYQQKRGQAPRLLIYGASRRVTGIPDRFSGSGSGTDFTLTITRLEPEDFAVYYCQQYGGSPRSFGQGTKVEIKR"
25.6,0.0035,137000,"M0132-C01 (Fab, V domains shown) VH: EVQLLESGGGLVQPGGSLRLSCAASGFTFSRYLMWWVRQAPGKGLEWVSVIGPSGGWTRYADSVKGRFTISRDNSKNTLYLQMNSLRAEDTAVYYCARHPGDYWGQGTLVTVSS VL: AQSALTQPRSVSGSPGQSVTISCTGTGSNIDGYNYVSWYQQYPGNAPKLIIYDVGKRPSGVPNRFSGSKSGNTASLTISGLQAEDEADYYCCSYAGSYSYVFGVGTKVTVLG"
26.8,0.00613,229000,"M0123-E02 (Fab, V domains shown) VH: EVQLLESGGGLVQPGGSLRLSCAASGFTFSHYRMDWVRQAPGKGLEWVSGIYPSGGHTNYADSVKGRFTISRDNSKNTLYLQMNSLRAEDTAVYYCARDRGWYGADYWGQGTLVTVSS VL: AQSALTQPASVSGSPGQSITISCSGTSSDVGAYYHVSWYQQHPGKAPKLMIYDVSNRPSGVSNRFSGSKSGNTASLTISGLQAEDEADYYCSLYIGTSTPWVFGGGTKLTVLG"
28.1,0.00945,337000,"M0096-D03 (Fab, V domains shown) VH: EVQLLESGGGLVQPGGSLRLSCAASGFTFSHYWMVWVRQAPGKGLEWVSWIGPSGGGTVYADSVKGRFTISRDNSKNTLYLQMNSLRAEDTAVYYCARGNGGFDSWGRGTLVTVSS VL: AQSELTQPRSVSGSPGQSVTISCTGTTRDVGAYKYVSWYQQYPGKAPKLMLSDVSKRPSGVPDRFSGSKSGNTASLTISGLQSEDEADYYCCSFAGSYTWIFGGGTKVTVLG"
29.7,0.00209,70300,"M0131-G06 (Fab, V domains shown) VH: EVQLLESGGGLVQPGGSLRLSCAASGFTFSSYAMTWVRQAPGKGLEWVSSISSSGGDTAYADSVKGRFTISRDNSKNTLYLQMNSLRAEDTAVYYCATERHYIWGSYRYSWFDPWGQGTLVTVSS VL: AQYELTQAPSASGTPGQRVTISCSGSRSNIGTNPVNWYQHVPGTAPKLLILVNNQRPSGVPDRFSGSKSGASASLAISGLQSEDEAEYYCATWDGSLNGPVFGGGTKLTVLR"
